The values that follow come from US20030148957A1 (PROCTER AND GAMBLE, published 2003).

The target in this experiment is T1, CRF2R.
T1 sequence (Q13324 whole entry, species assumed, looked up): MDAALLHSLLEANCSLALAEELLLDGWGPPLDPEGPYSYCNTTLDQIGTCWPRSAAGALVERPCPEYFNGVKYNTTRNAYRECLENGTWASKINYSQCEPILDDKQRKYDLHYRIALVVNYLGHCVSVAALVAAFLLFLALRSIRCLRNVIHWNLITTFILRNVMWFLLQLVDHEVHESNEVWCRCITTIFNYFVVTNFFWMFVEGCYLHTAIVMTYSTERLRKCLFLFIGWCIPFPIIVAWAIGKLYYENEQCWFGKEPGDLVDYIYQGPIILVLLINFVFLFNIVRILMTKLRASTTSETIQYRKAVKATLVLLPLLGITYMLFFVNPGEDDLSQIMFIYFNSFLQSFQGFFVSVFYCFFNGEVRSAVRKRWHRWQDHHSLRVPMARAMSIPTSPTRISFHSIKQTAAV
The experiment can be described thus: cell-based or functional assay.

Ends that are not written are not given here.

For IVLSLDVPIGLLQELLEMARAEQLAQQAHSNRKLMEII-NH2 [SEQ ID NO 1], the “CRF2R (Emax %)” value came to 100%.
